Measurements: publication PMC7857584

Experiments:
MLA10-cLUC (barley) = MLA10-cLUC (barley) (UniProt Q6WWJ4)

Substance: AVRA10-nLUC (natural protein)
- reduction of relative LUC activity (proxy for cell death) in barley protoplasts co-expressing AVRa10 and Mla22Lrr10, against the empty vector (% reduction of relative LUC activity) (MLA22LRR10-cLUC (barley)): 40
- LUC activity (proxy for cell viability) in barley protoplasts co-expressing Mla10 and AVRa10, against Mla10 with AVRa22 (% lower LUC activity) (MLA10-cLUC (barley)): 50
